Test results from US20260285966 (published 2026).
Like-named read-outs stand apart in the source and are kept apart here.

T1: cynomolgus IL-15+IL-15Ralpha complex (Macaca fascicularis)
T1 chain 1: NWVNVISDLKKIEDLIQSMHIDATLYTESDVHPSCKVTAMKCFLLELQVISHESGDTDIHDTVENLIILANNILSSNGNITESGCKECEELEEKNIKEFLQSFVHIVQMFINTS
T1 chain 2: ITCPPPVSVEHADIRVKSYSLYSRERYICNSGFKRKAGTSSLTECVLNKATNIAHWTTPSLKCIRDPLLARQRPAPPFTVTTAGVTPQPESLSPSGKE


Legend:
Assay in all cases: SPR
[1] = target: human IL-15+IL-15Ralpha complex (human)
[2] = target: human IL-15+IL-15Ralpha complex (human); remark: listed apart in the source
[3] = target: human IL-15+IL-15Ralpha complex (human); remark: listed apart in the source
[4] = target: T1, cynomolgus IL-15+IL-15Ralpha complex
[5] = target: human IL-15+IL-15Ralpha complex (human); remark: listed apart in the source

Binder | Kd [1] | Kd [2] | Kd [3] | Kd [4] | Kd [5]
CALY-002 (antibody, V domains shown) VH: EVQLVESGGGLVQPGGSLRLSCAASEFTFSNYAMSWVRQAPGKGLEWVATISRGGDYTYYPDSVKGRFTISRDNSKNTLYLQMNSLRAEDTAVYYCARRVSMITGGWAMDYWGQGTLVTVSS VL: DVVMTQSPLSLPVTLGQPASISCRSSQSIVDITGNTYLEWYQQRPGQSPRLLIYKVFNRFSGVPDRFSGSGSGTDFTLKISRVEAEDVGVYYCFQDSFVPYTFGQGTKLEIK | 0.201 nM | 0.239 nM | 0.337 nM | 0.148 nM | –
R1A3 (antibody, V domains shown) VH: EVQLVQSGAEVKKPGESLKISCKVSGYFFTTYWIGWVRQMPGKGLEYMGIIYPGDSDTRYSPSFQGQVTISADKSISTAYLQWSSLKASDTAMYYCARGGHWNAFDFWGQGTLVTVSS VL: EIVLTQSPGTLSLSPGERATLSCRASQSVSSSYLAWYQQKPGQAPRLLIYGASRRATGIPDRFSGSGSGTDFTLTISRLEPEDFAVYYCQQFDASQTFGQGTKLEIS | – | – | – | – | 0.353 nM
